Read-outs that look alike come from different tables or passages of the source.
How the values were obtained:
Assay in all cases: cell-based or functional assay
[1] = molecular target: T1, ROR1 expressed on cell surface (Jeko-1 cell line, AMB-LC-0003T and AMB-LC-0002T patient-derived lung cancer … (human, UniProt Q01973 30-937))
[2] = molecular target: T1, ROR1 expressed on cell surface (Jeko-1 …); remark: listed apart in the source
[3] = molecular target: T1, ROR1 expressed on cell surface (Jeko-1 …); remark: listed apart in the source

T1 sequence (Q01973 30-937): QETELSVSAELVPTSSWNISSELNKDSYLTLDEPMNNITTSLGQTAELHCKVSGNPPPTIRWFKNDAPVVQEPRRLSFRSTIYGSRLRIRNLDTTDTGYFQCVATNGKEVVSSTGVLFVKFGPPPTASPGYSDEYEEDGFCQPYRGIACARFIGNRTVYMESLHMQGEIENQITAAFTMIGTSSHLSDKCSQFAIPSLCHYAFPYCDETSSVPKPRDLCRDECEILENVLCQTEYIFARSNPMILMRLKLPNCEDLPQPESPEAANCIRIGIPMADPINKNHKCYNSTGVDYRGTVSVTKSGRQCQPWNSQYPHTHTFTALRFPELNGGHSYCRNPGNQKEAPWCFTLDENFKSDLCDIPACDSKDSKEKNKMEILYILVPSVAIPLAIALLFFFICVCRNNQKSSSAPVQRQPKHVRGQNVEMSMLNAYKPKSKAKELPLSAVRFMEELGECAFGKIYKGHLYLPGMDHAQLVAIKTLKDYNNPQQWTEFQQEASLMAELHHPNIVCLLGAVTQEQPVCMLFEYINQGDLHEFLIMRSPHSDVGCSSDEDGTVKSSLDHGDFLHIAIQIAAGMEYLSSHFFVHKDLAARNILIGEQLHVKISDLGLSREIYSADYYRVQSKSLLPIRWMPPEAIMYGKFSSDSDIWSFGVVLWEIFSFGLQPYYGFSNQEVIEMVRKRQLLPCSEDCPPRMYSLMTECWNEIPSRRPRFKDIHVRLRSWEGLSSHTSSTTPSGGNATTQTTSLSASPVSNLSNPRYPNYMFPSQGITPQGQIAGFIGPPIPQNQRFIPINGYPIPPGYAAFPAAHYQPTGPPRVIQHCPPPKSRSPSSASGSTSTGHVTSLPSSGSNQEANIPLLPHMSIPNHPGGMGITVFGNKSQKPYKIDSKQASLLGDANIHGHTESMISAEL

B1: P015042-vc-PAB-MMAE (antibody, IgG1, V domains shown)
VH: EVQLLESGGGLVQPGGSLRLSCAASGFTFSDYAMSWVRQAPGKGLEWVSVISSDGGSIYYADSVKGRFTISRDNSKNTLYLQMNSLRAEDTAVYYCAKDRSRDMEVDFDYWGQGTLVTVSS
VL: QSVLTQPPSASGTPGQRVTISCSGSSSNIGSNYVTWYQQLPGTAPKLLIYDSSQRPSGVPDRFSGSKSGTSASLAISGLRSEDEADYYCGTWDYSLSGYVFGGGTKLTVL
modifications: maleimidocaproyl-valine-citrulline-p-aminobenzyloxycarbonyl monomethyl auristatin E on cysteine sulfhydryls of reduced disulfides; positions not given; average 3.3 drugs per antibody
IC50, spheroid volume, AMB-LC-0002T (low ROR1 expression) [1]: ≥ 100 nM | Fold Change of IC50, AMB-LC-0002T/AMB-LC-0003T [2]: 81.4 fold | IC50 (nM), spheroid volume, AMB-LC-0002T (low ROR1 expression) [2]: 187 nM | IC50 (nM), spheroid volume, AMB-LC-0003T (high ROR1 expression) [2]: 2.3 nM | Fold Change of IC50, AMB-LC-0002T/AMB-LC-0003T [3]: 56.3 fold | IC50 (nM), spheroid volume after 6 days of treatment, AMB-LC-0003T (high ROR1 expression) [3]: 2.88 nM | IC50 (nM), spheroid volume, AMB-LC-0002T (very low ROR1 expression) [3]: 162 nM

Reference: patent US20260028400A1 (AIMED BIO, published 2026)
